Data from patent US20250228976A1 (BROAD INSTITUTE, published 2025).
Numbering of substitutions follows the chain as printed.

B1: AAV-BI98 (other)
chain: MAADGYLPDWLEDNLSEGIREWWALKPGAPQPKANQQHQDNARGLVLPGYKYLGPGNGLDKGEPVNAADAAALEHDKAYDQQLKAGDNPYLKYNHADAEFQERLKEDTSFGGNLGRAVFQAKKRLLEPLGLVEEAAKTAPGKKRPVEQSPQEPDSSAGIGKSGAQPAKKRLNFGQTGDTESVPDPQPIGEPPAAPSGVGSLTMASGGGAPVADNNEGADGVGSSSGNWHCDSQWLGDRVITTSTRTWALPTYNNHLYKQISNSTSGGSSNDNAYFGYSTPWGYFDFNRFHCHFSPRDWQRLINNNWGFRPKRLNFKLFNIQVKEVTDNNGVKTIANNLTSTVQVFTDSDYQLPYVLGSAHEGCLPPFPADVFMIPQYGYLTLNDGSQAVGRSSFYCLEYFPSQMLRTGNNFQFSYEFENVPFHSSYAHSQSLDRLMNPLIDQYLYYLSRTINGSGQNQQTLKFSVAGPSNMAVQGRNYIPGPSYRQQRVSTTVTQNNNSEFAWPGASSWALNGRNSLMNPGPAMASHKEGEDRFFPLSGSLIFGKQGTGRDNVDADKVMITNEEEIKTTNPVATESYGQVATNHQSAQYSRLNMNAQAQTGWVQNQGILPGMVWQDRDVYLQGPIWAKIPHTDGNFHPSPLMGGFGMKHPPPQILIKNTPVPADPPTAFNKDKLNSFITQYSTGQVSVEIEWELQKENSKRWNPEIQYTSNYYKSNNVEFAVNTEGVYSEPRPIGTRYLTRNL
notes: Engineered AAV capsid tested as assembled virus particles; entry is full VP1; also called AAV-B198
B2: AAV-BI101 (other)
chain: B1 chain with S590H, N593S, M594N
notes: Engineered AAV capsid tested as assembled virus particles; entry is full VP1
B3: AAV-BI99 (other)
chain: B1 chain with M594K, N595D
notes: as for B2
B4: AAV-BI19 (other)
chain: B1 chain with L592I, N593G, M594P
notes: Engineered AAV capsid, tested as assembled genome-packaging virus particles; VP2 and VP3 come from the same cap gene
B5: AAV-BI102 (other)
chain: B1 chain with Y589L, S590H, R591A, N593S, M594H
notes: as for B2
B6: AAV-BI100 (other)
chain: B1 chain with Y589V, S590H, N593Q, M594D, N595K
notes: as for B2

How the values were obtained:
[1] = molecular target: T1, human Transferrin Receptor (TFRC) (human, UniProt P02786 1-760); assay: binding of AAV to CHO or hCMEC cells expressing human TFRC, relative to AAV9
T1 construct: whole, on cells; also called hTFRC; huTfR1

mouse TfR1 = molecular target: T2, mouse TfR1 (mouse, UniProt Q62351 1-763); assay: qPCR of cell-bound vector genomes, CHO cells stably expressing TfR1, 4 C, 1 h
T2 construct: whole, on cells; also called mouse TFRC; mouse Tfrc

macaque TfR1 = molecular target: T3, macaque TfR1 (rhesus macaque, UniProt I0FKY7 1-760); assay: as above
T3 construct: whole, on cells; also called macTfR1; rhesus macaque TFRC

marmoset TfR1 = molecular target: T4, marmoset TfR1 (marmoset, UniProt U3FHF5 1-760); assay: as above
T4 construct: whole, on cells; also called marmoset TFRC; marTFRC

[2] = molecular target: T1, human Transferrin Receptor (TFRC); assay: legend of the 2-step in vivo transduction assay (human TFRC expressed in mouse brain endothelium)

T1 sequence (P02786 whole entry): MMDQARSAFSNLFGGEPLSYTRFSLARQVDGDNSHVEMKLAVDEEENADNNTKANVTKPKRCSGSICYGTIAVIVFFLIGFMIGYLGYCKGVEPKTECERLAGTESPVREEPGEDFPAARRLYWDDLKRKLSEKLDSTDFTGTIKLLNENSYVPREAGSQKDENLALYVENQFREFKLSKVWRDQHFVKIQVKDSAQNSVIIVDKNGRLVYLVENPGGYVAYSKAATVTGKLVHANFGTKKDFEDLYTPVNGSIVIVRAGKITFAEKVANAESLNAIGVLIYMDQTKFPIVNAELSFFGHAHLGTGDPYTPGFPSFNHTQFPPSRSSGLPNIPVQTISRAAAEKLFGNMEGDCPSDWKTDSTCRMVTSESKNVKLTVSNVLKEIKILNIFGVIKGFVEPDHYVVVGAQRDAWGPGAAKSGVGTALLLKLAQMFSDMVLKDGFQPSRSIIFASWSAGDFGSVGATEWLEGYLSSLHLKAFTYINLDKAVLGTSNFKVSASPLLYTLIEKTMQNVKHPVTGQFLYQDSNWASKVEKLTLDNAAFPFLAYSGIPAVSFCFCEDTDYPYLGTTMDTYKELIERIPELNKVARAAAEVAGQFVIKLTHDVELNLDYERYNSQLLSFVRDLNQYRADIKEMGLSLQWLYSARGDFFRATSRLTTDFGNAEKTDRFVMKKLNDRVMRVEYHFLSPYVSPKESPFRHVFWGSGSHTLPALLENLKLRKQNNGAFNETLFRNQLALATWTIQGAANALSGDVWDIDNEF
T2 sequence (Q62351 whole entry): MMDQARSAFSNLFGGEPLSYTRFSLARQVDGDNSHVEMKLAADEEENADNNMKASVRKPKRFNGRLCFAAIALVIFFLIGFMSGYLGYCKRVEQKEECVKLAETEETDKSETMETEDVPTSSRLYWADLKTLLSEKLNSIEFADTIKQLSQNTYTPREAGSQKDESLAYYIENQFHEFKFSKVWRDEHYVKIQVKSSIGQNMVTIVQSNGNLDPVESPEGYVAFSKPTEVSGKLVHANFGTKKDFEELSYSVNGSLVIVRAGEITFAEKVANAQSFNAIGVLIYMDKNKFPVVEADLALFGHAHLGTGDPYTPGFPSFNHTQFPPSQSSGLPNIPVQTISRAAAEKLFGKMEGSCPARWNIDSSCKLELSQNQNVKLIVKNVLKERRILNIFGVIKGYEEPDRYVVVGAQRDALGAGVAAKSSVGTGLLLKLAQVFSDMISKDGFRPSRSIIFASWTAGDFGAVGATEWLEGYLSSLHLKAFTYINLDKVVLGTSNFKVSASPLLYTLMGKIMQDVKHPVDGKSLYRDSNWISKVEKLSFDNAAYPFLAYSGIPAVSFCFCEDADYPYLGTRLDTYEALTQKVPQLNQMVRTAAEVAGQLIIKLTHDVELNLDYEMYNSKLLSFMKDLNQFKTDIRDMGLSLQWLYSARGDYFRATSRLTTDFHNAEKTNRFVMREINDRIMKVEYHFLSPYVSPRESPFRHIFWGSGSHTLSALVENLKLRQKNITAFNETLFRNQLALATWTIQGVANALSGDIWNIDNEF

Binder | binding result [1] | binding result (mouse TfR1) | binding result (macaque TfR1) | binding result (marmoset TfR1) | binding result [2]
B1 | binds | no binding (tested: 3,000 vg/cell) | no binding (tested: 3,000 vg/cell) | no binding (tested: 3,000 vg/cell) | 
B2 | binds | no binding (tested: 3,000 vg/cell) | no binding (tested: 3,000 vg/cell) | no binding (tested: 3,000 vg/cell) | 
B3 | binds | no binding (tested: 3,000 vg/cell) | no binding (tested: 3,000 vg/cell) | no binding (tested: 3,000 vg/cell) | 
B4 |  | no binding (tested: 3,000 vg/cell) | no binding (tested: 3,000 vg/cell) | no binding (tested: 3,000 vg/cell) | binds
B5 | binds |  |  |  | 
B6 | binds |  |  |  | 
